From the RNAGym collection of RNA variant scans (doi:10.1093/nar/gkz1192) come the findings set out here.

To fix the notation:
B1: CPEB3 Ribozyme (parent)
chain: UAACAGGGGGCCACAGCAGAAGCGUUCACGUCGCAGCCCCUGUCAGAUUCUGGUGAAUCUGCGAAUUCUGCUGUAUAUCUC

The variants in this data set derive from B1. As to the kind of experiment: self-cleavage, relative activity (ratio to wild type); higher = more cleavage; in vitro, sequencing. The procedure, abridged:
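Libraries of CPEB3 self-cleaving ribozyme mutants came from rounds of error-prone PCR and carried barcodes, which DNA sequencing matched to variants. In vitro transcription used T7 RNA polymerase at 37°C for 5 hours, with a further 15 min in DNase I before EDTA stopped the reaction; the ribozymes cleaved during both steps. The RNA was reverse transcribed with template switching and sequenced on Illumina. Relative activity is the cleaved/total read fraction of a variant divided by that of the unmutated ribozyme, averaged over three batches with at least 5 reads.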
For the variant G6C C71A, the self-cleavage was determined as 0.21. As for G7A U43A, the self-cleavage was 0.32. For G7A U43C the value was 0.21. As for G7A U43G, the self-cleavage amounted to 0.15.

Regarding G7U A45G, the self-cleavage is 0.22. With G7U A45U the figure was 0.14.

For the variant G7U A45C, the self-cleavage stood at 0.2. For G7A U25A the value was 0.15; for G7A U25C, 0.33; for G7C U60C, 0.2. With G7A A13G the figure was 0.3; with G6C U26A, 0.47. With G8A the figure was 0.27. Turning to G6C U54C, the self-cleavage was found to be 0.52. Turning to G7A U74A, the self-cleavage is 0.09. For G7A U74C the value was 0.5; for G7C U54A, 0.22.

For the variant G7C U54C, the self-cleavage stood at 0.34.

Regarding G6U A28G, the self-cleavage amounted to 0.38. With G6U U67A the figure was 0.09; with G6U U67C, 0.11. For G7C C37U the value was 0.24; for G7U C37G, 0.53; for G7U C37A, 0.17.

For the variant G7C U48C, the self-cleavage amounted to 0.4. Take G7U A56U: the self-cleavage was 0.16.

Regarding G7U A56G, the self-cleavage came out at 0.23. For G8A A35U the value was 0.14; for G8A A35G, 0.5. For G8A A35C the value was 0.21; for G6U U25C, 0.37; for G7C U49A, 0.26. For G7A C14A the value was 0.31; for G7U U74C, 0.46; for G7U U74A, 0.22. For G7A U69C, the self-cleavage came to 0.26. With G7A U69A the figure was 0.39; with G7A G73A, 0.48; with G7U C62G, 0.17. With G7U C62U the figure was 0.21; with G7C U26C, 0.35; with G6A U80C, 0.45.

Regarding G6A U80A, the self-cleavage amounted to 0.53. For G7U A18G the value was 0.19; for G7C A57U, 0.19. G7A G30A: the self-cleavage worked out at 0.35. For G7C A35C the value was 0.09; for G7C A35G, 0.31. On to G7A A21G, for which the self-cleavage worked out at 0.33.

Regarding G6U A47G, the self-cleavage amounted to 0.36.

For the variant G6U A47U, the self-cleavage stood at 0.17. With G6C G19A the figure was 0.48. For G6C G19U the value was 0.2. With G6C G42A, the self-cleavage is 0.31. For G7C U41C the value was 0.2.

As to G7C A47G, the self-cleavage worked out at 0.43. For G7U A47C the value was 0.37.

As for G7U A47G, the self-cleavage came out at 0.29. With G6U C32U the figure was 0.08. With G7C the figure was 0.29. With G7U the figure was 0.25; with G7A, 0.25; with G7A A77U, 0.26. Turning to G7A G10A, the self-cleavage came to 0.24. For G7U U58A the value was 0.25. Regarding G7U U58C, the self-cleavage amounted to 0.2. G6C U25A: the self-cleavage is 0.5. For G6U C29U the value was 0.25. On to G7A U72C, for which the self-cleavage worked out at 0.48. With G6U C23U the figure was 0.25; with G7U A15G, 0.27; with G7U A15U, 0.23. For G6C the value was 0.36; for G6U, 0.35. G7A C40U: the self-cleavage stood at 0.3. For G7A C40A the value was 0.18; for G7U U49C, 0.11; for G7A A20C, 0.27. For G7A A20G the value was 0.26; for G7U A21U, 0.34. With G7U A21G the figure was 0.31. On to G7C C50A, for which the self-cleavage was found to be 0.29. With G7A C59A the figure was 0.04; with G7A U51G, 0.1; with G7A U51A, 0.35. For G7A U51C, the self-cleavage stood at 0.2. With G7U U43A the figure was 0.09. For G7U U43C the value was 0.38. As to G6U A56G, the self-cleavage worked out at 0.41.

In the case of G6U A56U, the self-cleavage was determined as 0.22.

On to G7C A45G, for which the self-cleavage is 0.26. With G6U A64G the figure was 0.32; with G6U A64U, 0.07; with G7U A65G, 0.4.

G7C U80A: the self-cleavage came out at 0.37. With G7C U80C, the self-cleavage is 0.27. With G6U A65U the figure was 0.23; with G6U A57G, 0.43. For G7U U80C the value was 0.27; for G7A U66C, 0.13. With G6U U76C the figure was 0.15.

Consider G6U U76A, for which the self-cleavage came out at 0.32. For G6U U58C, the self-cleavage was determined as 0.16. With G7U C34U the figure was 0.07; with G7U A20U, 0.11; with G7U A20G, 0.27. With G7C U67C the figure was 0.19. For G6U A15U the value was 0.41; for G6U A15C, 0.19.

Take G7A U49C: the self-cleavage was 0.2. Turning to G7A U58A, the self-cleavage was determined as 0.27.

For G7A U58C, the self-cleavage stood at 0.13. With G6C C62U the figure was 0.2; with G7A U31C, 0.25. For G7A U31G the value was 0.14; for G7U U69A, 0.2; for G7U U69C, 0.19.

Turning to G7C U69C, the self-cleavage was determined as 0.2. With G7A A65G the figure was 0.11. G7A A28C: the self-cleavage is 0.2. For G7A A28G the value was 0.16; for G6U U26A, 0.13; for G6U U26C, 0.38. Regarding G7C A21G, the self-cleavage was found to be 0.34. For the variant G7U U31C, the self-cleavage came to 0.15. Take G7U U31A: the self-cleavage came to 0.07. For G7C A18G the value was 0.33; for G6U U66A, 0.13.

Consider G6U U66C, for which the self-cleavage came to 0.2. For G7C A15G the value was 0.21; for G7C A15U, 0.18; for G6U A75G, 0.09. For G7C G30U, the self-cleavage is 0.14. For G7U U26C the value was 0.15; for G7U U26A, 0.21.

As to G7A G46U, the self-cleavage came to 0.39.

As for G7A G46A, the self-cleavage was found to be 0.07. As for G6A U74C, the self-cleavage was 0.54. With G6U A21G the figure was 0.29; with G6U A21C, 0.17. As to G7U A35G, the self-cleavage stood at 0.14. With G7U A35U the figure was 0.38; with G7A G55A, 0.15. For G7A G55U the value was 0.2. For G6U G7A the value was 0.33. With G7U A64C, the self-cleavage was determined as 0.13. With G7U A64G the figure was 0.14; with G7U A64U, 0.13. For G6U U49C the value was 0.22; for G6U U49A, 0.38. With G7A C29A the figure was 0.36; with G8A A47G, 0.23; with G8A A47U, 0.2.

G6A U72G: the self-cleavage was determined as 0.27. For G7U C50A, the self-cleavage was found to be 0.06. For G8A A45U the value was 0.06; for G8A A45G, 0.29. With G6U C11A, the self-cleavage stood at 0.16. In the case of G6U U74G, the self-cleavage is 0.4. On to G7U A57G, for which the self-cleavage was found to be 0.19. With G6U A18U the figure was 0.12; with G6U A18C, 0.14; with G7C G24C, 0.15. For G7A A75G the value was 0.3; for G7U G55A, 0.08; for G7U A75G, 0.2. With G7U A75U the figure was 0.13.
